From patent publication US20030199671A1, “Binding molecules for Fc-region polypeptides” (priority 2001, published 2003)
Like-named read-outs stand apart in the source and are kept apart here. code X = not defined here; code Z = not defined here; Su = not defined here

What was measured:
[1] = biological target: IgG4 (Homo sapiens, UniProt P01861); type: binding; set-up: all human subtypes derived from myeloma patients; purchased Calbiochem 400126; host or cells: myeloma patients; details: for Batch Binding (% Capture of Total Load) hIgG4: Table 18, average ligand density 1.9 μmole/ml; for hIgG4 elution pH 3.0 (% of Total Load): Table 13
Experimental: (§1) In addition, the following targets, all unfractionated IgGs, were also evaluated with selected immobilized peptides for species specificity characterization in a similar format: human IgG, goat IgG, bovine IgG, and mouse IgG (Sigma, product nos. I4506, I5256, I5506, and I15381, respectively). In addition, 10 μl aliquots of hydrolyzed NHS-activated Sepharose 4 Fast Flow (Amersham Pharmacia Biotech, product no. 17-0906-01) and immobilized recombinant Protein A (RepliGen Corp., product no. IPA-400) were also assayed as negative and positive controls. IgG targets were diluted into 10 mM phosphate buffer containing 150 mM NaCl and 0.01% Tween 20, pH 7.2 (PBST) or 50 mM Tris buffer containing, 150 mM NaCl and 0.01% Tween-20, pH 7.5 (TBST). Batch (static) binding and elution studies were conducted in a 96-well assay filterplate (Millipore MultiScreen-HV, with 0.45 μm Durapore membrane, product no. MAHVN4510). The target was allowed to incubate with the resin for 1-1.5 hours with shaking at room temperature. Unbound target was collected by centrifugation of samples from the assay plate directly into a low-UV absorbing 96-well collection plate (Costar, product no. 3635 or Greiner, product no. 655801). The unbound target was then quantitated by reading the absorbance at 280 nm (normalized to 1 cm pathlength, 1.4 mg/ml A280 extinction coefficient) of the collection plate on a microplate spectrophotometer (Molecular Devices Corp., SPECTRAmax PLUS) against a buffer blank.
(§2) The percentage bound target was determined by subtracting the mass determined as unbound from the corresponding condition's control values (control non-filtered added directly to the collection plate and/or the negative control). The assay plate was washed (3×) with 200 μl of binding buffer by vacuum filtration followed by addition of 100 μl of various elution conditions (e.g.: 0.1 M sodium bicarbonate buffer, pH 8.5 and/or 0.1 M sodium citrate buffer, pH 4.0). After a 30-60 minute incubation with shaking at room temperature, the eluted target was collected by centrifugation of the assay plate into another collection plate and quantitated in a similar manner. Percent elution of total load was then determined to characterize elution recovery efficiency under various conditions. The assay plate was then washed (3×) with 200 μl of binding buffer by vacuum filtration followed by addition of a resin cleaning condition (e.g., 0.1M CAPS buffer (3-[Cyclohexylamino]-1-propane-sulfonic acid), pH 11.5, to regenerate the resin for re-use. Percentage mass balance determination was calculated to be 90-100% on average.

[2] = test system: human IgG; assay: Dynamic (mini-column) binding capacity; details: Table 18; total dynamic capacity; average ligand density 1.9 μmole/ml
Experimental: These media were used to determine the effect of ligand density on human IgG binding capacity in both static (filterplate) and dynamic (mini-column) modes with commercial immobilized recombinant Protein A (Repligen, IPA400) at a single density as control.
The IgG solution was loaded onto the column at a flow rate of 0.2 ml/minute (170 cm/hr). […] At the end of the loading period, the column was washed with PBS until the absorbance at 280 nm of the column eluant returned to baseline. […] Neutralizing the pH of the eluted fractions was unnecessary since the total IgG eluted was determined by total protein absorbance at 280 nm.
To establish total media capacities, IgG was loaded onto the columns until the absorbances of the column load and flow through streams were identical (loading to full capacity). After washing the column to baseline, bound IgG was eluted and the total amount captured from this elution fraction determined. The total capacity of the media (mg IgG/ml media) as total IgG captured divided by the column bed volume was calculated.
Additionally, column capacities at 10% breakthrough were calculated from the online A280 measurements of column flowthrough streams. The A280 curves obtained for the column of interest and for an equivalent “blank” column containing hydrolyzed Sepharose FF 4 media were aligned. The difference in areas between these curves (for a retained and non-retained target) from the time of injection to the time at which the A280 value for the column of interest had risen to 10% of the maximum A280 absorbance (100%) obtained for the load solution at 100% IgG capture saturation (10% breakthrough) was graphically integrated. A standard curve was used to relate the integrated area to mg IgG bound and capacity calculated as total IgG bound divided by column bed volume.

[3] = test system: human IgG; assay: Static (filterplate) binding capacity; details: 25 mg human IgG applied per ml resin
Experimental: These media were used to determine the effect of ligand density on human IgG binding capacity in both static (filterplate) and dynamic (mini-column) modes with commercial immobilized recombinant Protein A (Repligen, IPA400) at a single density as control. Actual ligand densities obtained ranged from 0.17 to 3.2 μmole/ml media as confirmed by quantitative amino acid analysis.
After incubation of the samples, with shaking, at room temperature for one hour, the supernatant liquid from each well, containing unbound IgG, was collected by centrifugation into the cognate well of a collection plate. The assay plate was washed three times with PBST (200 μl/wash) and bound IgG was eluted from the media samples by incubation for 30-60 minutes at room temperature in 100 μl Elution Buffer (100 mM CAPS, pH 11.5). Eluates were collected by centrifugation for analysis. Protein concentrations were determined from A280 measurements and plotted as a function of mg human IgG bound per ml resin vs. mg human IgG applied per ml resin.
The amount of IgG captured (estimated from IgG recovered in the elution step) by the various media is dependent upon both the IgG concentration and the ligand density. […] Under these static conditions, where both ligand and target concentrations are close to KD values, equilibrium binding is established and total capacities cannot be accurately determined. However, over the IgG range of 0 to 25 mg IgG applied per ml resin (0 to 2.5 mg/ml target added to 10 μl of resin), capture of IgG is linear. Beyond this point, up to a level of 200 mg IgG applied per ml resin, saturation becomes more pronounced.

[4] = biological target: IgG3 (Homo sapiens, UniProt P01860); type: binding; set-up: all human subtypes derived from myeloma patients; purchased Calbiochem 400124; host or cells: myeloma patients; details: for Batch Binding (% Capture of Total Load) hIgG3: Table 18, average ligand density 1.9 μmole/ml
Experimental: as §1, §2

[5] = biological target: T1, human IgG1 (Homo sapiens, UniProt P01857); type: binding; details: for Batch Binding (% Capture of Total Load) hIgG1: Table 18, average ligand density 1.9 μmole/ml; for hIgG1 elution pH 3.0 (% of Total Load): Table 13
T1 construct: all human subtypes derived from myeloma patients; purchased Calbiochem 400120; host or cells: myeloma patients
Experimental: as §1, §2

[6] = biological target: T2, human IgG2 (Homo sapiens, UniProt P01859); type: binding; details: for Batch Binding (% Capture of Total Load) hIgG2: Table 18, average ligand density 1.9 μmole/ml
T2 construct: all human subtypes derived from myeloma patients; purchased Calbiochem 400122; host or cells: myeloma patients
Experimental: as §1, §2

[7] = test system: human IgG; type: binding; details: for Batch Binding (% Capture of Total Load) hIgG: Table 18, average ligand density 1.9 μmole/ml
Experimental: as §1, §2

[8] = test system: mouse IgG; type: binding
Experimental: as §1, §2

[9] = test system: goat IgG; type: binding
Experimental: as §1, §2

[10] = test system: bovine IgG; type: binding; details: Table 11; unfractionated IgG
Experimental: as §1, §2

[11] = Table 14, average ligand density 1.8 μM/ml
[12] = Table 9, immobilized peptide, 5.0 mg/ml resin load

Chain of IgG3 (P01860 1-377 isoform P01860-1): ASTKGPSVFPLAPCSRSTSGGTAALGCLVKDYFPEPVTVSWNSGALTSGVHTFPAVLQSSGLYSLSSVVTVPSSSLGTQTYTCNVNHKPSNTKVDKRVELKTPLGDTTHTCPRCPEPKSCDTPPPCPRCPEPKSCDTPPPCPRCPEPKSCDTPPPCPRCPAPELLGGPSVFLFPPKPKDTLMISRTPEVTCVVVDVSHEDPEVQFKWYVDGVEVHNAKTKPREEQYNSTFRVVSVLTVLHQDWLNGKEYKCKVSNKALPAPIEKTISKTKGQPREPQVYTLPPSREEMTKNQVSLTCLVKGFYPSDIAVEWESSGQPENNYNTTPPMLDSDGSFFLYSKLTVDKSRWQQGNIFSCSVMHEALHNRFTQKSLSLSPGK
T1 sequence (P01857 1-330 isoform P01857-1): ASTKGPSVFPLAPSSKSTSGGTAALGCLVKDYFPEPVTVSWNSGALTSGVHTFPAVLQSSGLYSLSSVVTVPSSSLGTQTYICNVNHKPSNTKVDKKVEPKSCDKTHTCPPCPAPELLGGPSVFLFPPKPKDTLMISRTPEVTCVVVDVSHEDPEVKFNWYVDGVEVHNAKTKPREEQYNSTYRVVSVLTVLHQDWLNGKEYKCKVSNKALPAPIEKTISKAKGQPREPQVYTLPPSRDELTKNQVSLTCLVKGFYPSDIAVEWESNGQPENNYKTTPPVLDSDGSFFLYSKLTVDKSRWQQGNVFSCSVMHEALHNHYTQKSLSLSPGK
Chain of IgG4 (P01861 1-327 isoform P01861-1): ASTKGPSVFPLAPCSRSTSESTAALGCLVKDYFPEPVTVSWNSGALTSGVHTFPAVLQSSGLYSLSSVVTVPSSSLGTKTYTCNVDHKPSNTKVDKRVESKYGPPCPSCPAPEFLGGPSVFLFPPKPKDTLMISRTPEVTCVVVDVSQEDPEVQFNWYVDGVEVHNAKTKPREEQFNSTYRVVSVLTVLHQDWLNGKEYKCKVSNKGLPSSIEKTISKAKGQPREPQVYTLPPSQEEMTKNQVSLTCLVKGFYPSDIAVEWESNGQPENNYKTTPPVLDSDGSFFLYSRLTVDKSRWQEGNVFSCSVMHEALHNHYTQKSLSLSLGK
T2 sequence (P01859 1-326 isoform P01859-1): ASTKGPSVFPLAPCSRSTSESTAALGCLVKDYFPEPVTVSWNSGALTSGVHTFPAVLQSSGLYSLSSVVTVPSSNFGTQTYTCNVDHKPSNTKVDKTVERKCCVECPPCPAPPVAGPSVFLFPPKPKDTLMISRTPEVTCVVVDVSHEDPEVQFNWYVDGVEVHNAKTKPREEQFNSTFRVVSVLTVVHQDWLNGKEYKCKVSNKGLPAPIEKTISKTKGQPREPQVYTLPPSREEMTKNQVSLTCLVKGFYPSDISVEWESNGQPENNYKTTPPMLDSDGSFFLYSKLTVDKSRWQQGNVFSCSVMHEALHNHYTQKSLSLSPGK

Ac-GDDHMCVYTTWGELIWCDNH-X-NH2 (Ac-GDDHMCVYTTWGELIWCDNH-{code X-NH2}; not fully specified (bridges); printed as Ac-GDDHMCVYTTWGELIWCDNH-X-NH2; cysteine pairing not given here; reading uncertain) [DX907]
Batch Binding (% Capture of Total Load) hIgG4 [1]: 35% | Dynamic Cap. [2]: 5 mg/mL | Decrease in apparent relative static capacity compared to DX249, DX877 and DX878 [3]: ~2 fold | Batch Binding (% Capture of Total Load) hIgG3 [4]: 7% | Batch Binding (% Capture of Total Load) hIgG1 [5]: 65% | Batch Binding (% Capture of Total Load) hIgG2 [6]: 54% | Batch Binding (% Capture of Total Load) hIgG [7]: 49%

Ac-GDDHMCVYTTWGELIWCDNHEPGPEG-X-NH2 (Ac-GDDHMCVYTTWGELIWCDNHEPGPEG-{code X-NH2}; not fully specified (bridges); printed as Ac-GDDHMCVYTTWGELIWCDNHEPGPEG-X-NH2; cysteine pairing not given here; reading uncertain) [DX877]
Dynamic Cap. [2]: 8 mg/mL | Static Cap. ([3]; Table 18, average ligand density 1.9 μmole/ml): 20 mg/mL | Batch Binding (% Capture of Total Load) hIgG [7]: 61%

Ac-GDNPMCWRASWWEDAYCINHEPGPEGGGK-NH2 (not fully specified (bridges); printed as Ac-GDNPMCWRASWWEDAYCINHEPGPEGGGK-NH2; cysteine pairing not given here) [DX1071]
hIgG4 elution pH 3.0 (% of Total Load) [1]: 5% | % IgG Capture - Batch Binding, Mouse IgG [8, 11]: 8% | hIgG1 elution pH 3.0 (% of Total Load) [5]: 4% | % IgG Capture - Batch Binding, Goat IgG [9, 11]: 3% | % IgG Capture - Batch Binding, Human IgG [7, 11]: 45%

Ac-AGPVDCKHHFWWCYWNGTPGPEGGGK-NH2 (not fully specified (bridges); printed as Ac-AGPVDCKHHFWWCYWNGTPGPEGGGK-NH2; cysteine pairing not given here) [DX251]
% IgG Capture - Batch Binding, Human IgG4 [1, 12]: 1% | % IgG Capture - Batch Binding, Human IgG3 [4, 12]: 5% | % IgG Capture - Batch Binding, Mouse IgG ([8]; Table 11, unfractionated IgG): 4% | % IgG Capture - Batch Binding, Human IgG1 [5, 12]: 6% | % IgG Capture - Batch Binding, Goat IgG ([9]; Table 11, unfractionated IgG): 0% | % IgG Capture - Batch Binding, Human IgG2 [6, 12]: 14% | % IgG Capture - Batch Binding, Bovine IgG [10]: 0% | % IgG Capture - Batch Binding, Human IgG ([7]; Table 11, unfractionated IgG): 4%

Ac-GDNPMCWRAHWWEDAYCINHEPGPEGGGK-NH2 (not fully specified (bridges); printed as Ac-GDNPMCWRAHWWEDAYCINHEPGPEGGGK-NH2; cysteine pairing not given here) [DX1072]
hIgG4 elution pH 3.0 (% of Total Load) [1]: 11% | hIgG1 elution pH 3.0 (% of Total Load) [5]: 27% | % IgG Capture - Batch Binding, Goat IgG [9, 11]: 4% | % IgG Capture - Batch Binding, Human IgG [7, 11]: 49%

Ac-GDDHMCVYTTWGELIWCDNH-X-Z-X-NH2 (Ac-GDDHMCVYTTWGELIWCDNH-{code X-code Z-code X-NH2}; not fully specified (bridges); printed as Ac-GDDHMCVYTTWGELIWCDNH-X-Z-X-NH2; cysteine pairing not given here; reading uncertain) [DX911]
Batch Binding (% Capture of Total Load) hIgG4 [1]: 25% | Decrease in apparent relative static capacity compared to DX249, DX877 and DX878 [3]: ~2 fold | Batch Binding (% Capture of Total Load) hIgG3 [4]: 6% | Batch Binding (% Capture of Total Load) hIgG1 [5]: 58% | Batch Binding (% Capture of Total Load) hIgG2 [6]: 46% | Batch Binding (% Capture of Total Load) hIgG [7]: 43%

Ac-GDDHMCVYTTWGELIWCDNH-X-Su-X-NH2 (Ac-GDDHMCVYTTWGELIWCDNH-{code X-Su-code X-NH2}; not fully specified (bridges); printed as Ac-GDDHMCVYTTWGELIWCDNH-X-Su-X-NH2; cysteine pairing not given here; reading uncertain) [DX909]
Batch Binding (% Capture of Total Load) hIgG4 [1]: 33% | Decrease in apparent relative static capacity compared to DX249, DX877 and DX878 [3]: ~2 fold | Batch Binding (% Capture of Total Load) hIgG1 [5]: 66% | Batch Binding (% Capture of Total Load) hIgG2 [6]: 54% | Batch Binding (% Capture of Total Load) hIgG [7]: 49%
